The values below come from publication PMC9482650, “Quantitative fragmentomics allow affinity mapping of interactomes” (Nature Communications, 2022).

One assay has as its target T1, SNTA1, Q13424.
T1 sequence (Q13424 82-180, limits assumed, looked up): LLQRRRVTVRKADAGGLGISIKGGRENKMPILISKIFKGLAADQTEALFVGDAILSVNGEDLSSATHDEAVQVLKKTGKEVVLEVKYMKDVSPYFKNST
The assay can be described thus: holdup assay. Further details: key: below the threshold = too weak to quantify, mostly under pKd 3.1 to 4. Particulars: plain residues with an end cap or a label only (N-terminal biotin on a linker: ado-ado).
As usually defined, the pKd is the negative decadic logarithm of the Kd, by convention in mol/L. As to PLSPEQPTKL [TRIM50, Q86XT4], the pKd result is on record as “below the threshold”.

The same assay, now with this note: plain residues with an end cap or a label only (N-terminal biotin on a linker: ahx).
Molecule TVICWPGSLV [LNX2, Q8N448] yielded a pKd of 3.96.

The molecule GYDWGPATDL [TJP3, O95049] came in with a pKd of 4.07.

PSASCAVTAA [PDLIM4, P50479;P50479-2]: the pKd entry is reported as “below the threshold”.

SDSSGQEYSL [KCTD3, Q9Y597]: the negative logarithm of the Kd (pKd) result is given as “below the threshold”.

RAVEEEESRF [PSCDBP, O60759]: the negative-log Kd (pKd) entry is “below the threshold”.

Regarding ESLLLGPSNF [SHROOM4, Q9ULL8], the pKd entry is reported as “below the threshold”.

HNAFLSVTTV [PDZRN4, Q6ZMN7] showed a negative logarithm of the Kd (pKd) of 3.56.

In the case of RRRKRKRTYL [HPV49-L2, P36762], the pKd came to 3.69.

For NRKREIFSNF [NHERF2, Q15599], the negative logarithm of the Kd (pKd) entry is reported as “below the threshold”.

Still in this assay, the particulars now being: plain residues with an end cap or a label only (N-terminal biotin on a linker: gsgsgs; C-terminal amide).
For VSVDDVRSTSQGLSSY [DFNB31_int, Q9P202], the pKd entry is given as “below the threshold”.

For YGIVQETTFDLGGDIH [MLLT4_int, P55196], the negative logarithm of the Kd (pKd) result is given as “below the threshold”.

Still in this assay, the particulars now being: plain residues with an end cap or a label only (N-terminal biotin on a linker: ttds).
For EVVHTPETSV [SLC16A3, O15427], the pKd came to 4.69.

For the molecule PRVKPQRSKV [PPP1R13L, Q8WUF5], the pKd entry was “below the threshold”.

The molecule PVRVCEETSL [OTULIN, Q96BN8] came in with a pKd of 4.53.

Consider EMDRRPATVV [PLCB4, Q15147], for which the pKd was determined as 4.08.

Turning to FHPLGADSQV [SLC2A1, P11166], the negative logarithm of the Kd (pKd) result was “below the threshold”.

As to VDFPPKESSL [ACVR2A, P27037], the negative-log Kd (pKd) was determined as 4.28.

KKYVDAETSL [SLC4A7, Q9Y6M7]: the pKd was determined as 4.14.

For the molecule DKDPHSETAL [TMIGD1, Q6UXZ0], the negative logarithm of the Kd (pKd) was 4.07.
